# Test: soluble on expression in E. coli; label from the status in PepcDB or PDB records
row,Sequence,soluble on expression in E. coli
1,MSLNPEEEVITLMKKAGIDLVATLPCDRIKNLLPLVSKNFPEIKMTREENGVGICAGFYLAGGKPLMLIQSTGLGNMINALESLNVTCKIPLPVLTSWRGVYKEAIEAQVPLGVHLPAILEGAGLAYTIIDEVEKLHQIENVISDAFENSRPHIALISPKVWEASECCAWQGAGMPEKPEVMERTCSIFLKKEVLKPVMLRNDAICAIASELDDEVTVTNLGVPCKELYACKDRDLNFYMFGSMGLVSSIGMGIALRSEKTVVAFDGDGSLLMNPNALLEIAKESPKNLIIIALDNGAYGSTGSQETCALRYIDLEIFANACGITNTAKVNAREELIKIFKKFRDMKELALIHVILKPGNTNAPNIPLSPEGAAKRFKEALEAKKNEGHHHHHH,soluble
2,GAMDMLGTSFNNFGISLSHKRYFSGKVDEIIRCTMGKRIVKISSTKINTSILSSVSEQIGENITDWKNDEKKVYVSRVVNQCIDKFCAEHSRKIGDNLRKQIFKQVEKDYRISLDINAAQSSINHLVSGSSYFKKKMDELCEGMNRSVKNDTTSNVANLISDQFFEKNVQYIDLKKLRGNMSDYITNLESPF,soluble
3,MADYDLAIIGGGLNGVSLARDAAGRGLRVILFEQGDLGGAASSATPRLIHGDLSVLERRGFWRVRRALAERRIWLRIAPHLVRPMRFVIPAHSEERPPWLLRAGLYVYDGLTNRGGLPPSATLDITHHPVGNALKRPFGTAFEYSDCVVDDSRLVVLTALDAAERGAAIHTGARCVRADRTDTWRLAVVDRGHRRTITARALANATGGWTSMVADTVLREPQPAMAAMQMSQIIVPRLFDSENVYVFQNNDGRLIFARPLERDFTLIGTVTHAFTGDPAIVAMPGADVSYLCEAASRYFRERVAPTDVVRTVSGVNLTLASARGRDGTALFHARRRKAPLITMFGGDVTTSRLRAERAVTRLTPFYPMSPPWTDGAVLPGGDFAWDRFDTEVDLARDRWRFLSEPEAQRLVAAYGSRLPAVLGEARTRDELGPTFGPELTGAEVRYLMSHEWARFPEDVLWRRSKLGLTMPKADRDGLAAFMADVNDRPEPVEQRPIGRLEHHHHHH,not soluble
4,MNIRDYIRENEARFLEDLFALIRIPSVSAKSEHKPDMQRCAEHWRDHLLQVGAQKAEVFQTPGNPVVYAERIMDPKAKTILVYAHYDVMPPEPLELWKSEPFEPVIRDGHIWARGADDDKGQGMIQVKGFETALALGLVQCNVKFLFEGEEEIGSTNLEAFCRAHKEMLSADVIIVSDTSMVSAETPSLTTGLRGLAYWEMEVTGPNRDLHSGHFGGAVANPINELCKLIAGIVDENGRITIPHFYDDVVPLSDEERQMIAQVPFSEEKYCQALDIDTVFGEAGYSTLERNSCRPSFDVCGIWGGYTGEGAKTVLPSKAYAKVSSRLVANQDHEKISQMFIDYIRSVAPKHIKVKVTPLHGGEAYLCPIDLPAYKAAEEACTIAFGKRPLAVRRGGSIPIIATFEKVLGLKTVLMGFGLESNAIHSPNENMPLDIFRKGIESVAEFYRIYK,not soluble
5,MTKRKNASNAGSSPKKEKKSETFAALKSVKAEKRPAADSSDSEPEDFEEEQITHTEAEETRNEDNGQAIYEPDVMRPLIESFLEFLVQRQSETSTVHNMENKVAEWAETRRDDNIDAGLFVLDFRKYLKSAVKFKNLQMNDSCAAISTYLNSEKSLVEYKSMPDRPPTKIQLYIKKHQIMLKGIGGEPMKNAYKAMNADTEGAKELDELLREASLQYIPQLQEFLDTHPNLTEEQKRSIVNKMKMLNKKYNSKEISSTPKKRSSKKDPETAFSLFCRTKNDKYRDLSDEEREIKLQKKFEKLPAAQKDIYESLAISM,soluble
6,MSLSEPILFVDDEQHVLNALQRVFSESGLETVFTRSPIEALELCRSKKFAVIVSDNMMPEMKGIELLTRIKEESPETVKCLLTAHADLDTALQAINSGEVFRFIVKPWRNEELYQAVSEGVARFRIWDALRQHDEGVLHSLAETIELKDHYTRGHCNRVADHALRICELLKLPSTTSREIRYGSWLHDCGKIGVPETILNSTCMLSEQEMIVVRKHPEWGANVAQQANLSPTLINIIRHHHERFDGTGYPFGLKGVSIPLEARIVAVADVFDALTTDRPYKPAMSFAKAHKLMGDMRGNHLEGRLVDMFFQTLDTEKTGSEGHHHHHH,not soluble
7,MSETVQLDVGGTIFKTSKSTLTKFNGFLKIMLESDIGLKIDESGSIFIDRSPKHFDLILNFMRDGDVVLPSCELTVKELLAEAQFYLLDELIELCSLKIEPVQAPKIKLRFIENDSQLLQILAAQQKPMLIIEYCMVGNDMSIPYNFNLYEFIEKQSHQFDIYFQRLSEDESSHKWKARIKWKPTENGYYSQFPYNLRINRGGRIIRDAKFLFLFFSSWLSSKNHCSLLDMCMIPIDCIVCPFQKISMCVPSLIRIPISSRFISRNIKIISFGLQR,soluble
8,SSQVPDVMVVGEPTLMGGEFGDEDERLITRLENTQFDAANGIDDEGGSGGHMGSGGTPEIPMCAGCDQHILDRFILKALDRHWHSKCLKCSDCHVPLAERCFSRGESVYCKDDFFKRFGTKCAACQLGIPPTQVVRRAQDFVYHLHCFACVVCKRQLATGDEFYLMEDSRLVCKADYETAKQ,soluble
9,AHHHHHHGSITLELHPSEIARYFELEECSHYFSNLLLRKRGELQEFEPIIRRKEIETIELAKWGDEFELSLLQEFKKGEALKKLGVKELPRFYGFLTENDTPVRKFFEKYFKDGIIVEEDPDKLLEIINSEKSAVIYQAPLKGRIGKFDVSGRADFIIKVGKTLYLLEAKFTKEEKFYHRIQAIIYAHLLSQMIEGYEIKLAVVTKENFPIPSNFLRFPGDVEELKITLEEKLGGILREQELWIDARCTTCPFEALCLSKALEERSLGLLSLPPGIIRILKEEGIKDLKDMAKLFEFKENSPTNFEEPSIKDPKKTQEIAKRTGINLLKLSRIAQAILKYLDEGETTPLFIPRTGYNLPMDERVGDVEPSYYPPRSLVKVFFYVQTSPITDTIIGISALVKNRQNGERIIVKFVDEPPIEVSDAQEKERMLLIEFFRDVIDAVKSLSPTDKVYLHMYFYNRKQRDDLMDAVKRHKEIRENNAVMALLSLRRAIDWESFSIIKDEIIRRHALPLSPGLGFVTVATQFGYRWRRNKTFARMLEVVARRENGKINLKTLLNISETGIGPEYYPIIDRDNEGIPFTLFWSALVKLATEEDNSRIKRDIRDILSQMVEALKTIEERIPEQYKDAFVKKEGIPKEDLENFDIKKEELADILLEYLQLEFDARFRERSEYYRLPLSIRAYSEESALIKIENIEKKKNDCLLFGKIVLIDENGRIKEYNPKEVLIDIDEGSLVVVTPKKFLDKLRRDPVQRISKSPLGIVEAIDHETGKVVIRLIRVSPGRFTLKHSKFSCKNGLLTITYPEGEVKVTPGEIVIVDPSVDDIGMERAYNVLSEISQGELKHEIYQKVKAIYEGNTESRYEVNIWKKKHIEEFLSRVKKINEEQKKFAIDINNFLVTLQGPPGTGKTSGAIAPAILARAYSMVKDKKNGLFVVTGVSHRAVNEALIKTLKLKKELENTLKELRKIDLIRAVSGEEAIKIIKEELEREIKDDVDRIRFTAQEITHSSKQRSLDKYFANSGTVRIVFGTPQTLNKLMKNTKEVELVVIDEASMMDLPMFFLSTKVCKGQVLLVGDHRQMEPIQVHEWQLEDRKTFEEHYPFLSALNFIRFLRGELDERELKKFKRILGREPPEWKKDKNEVLPLYRLVRTYRLPQEIADLLSDAIYRADGIKLISEKKKRRKIIARHKDEFLSIVLDDRYPFVLILHDEGNSTKINELEAKIVEKIIKRVENIDIGVVVPYRAQKRLIASLIDSAQVDTVERFQGGEKSLIVISMTSSDPRIPGKGF,not soluble
10,GPGSMGLTQDQTQRVKTAFLSYAQGQPKVSEAMMDQLICGAIPGLSWEQLQAKKAVRKVGADGYDLGAFFAMVNSDPAYIAFIQQHFPPAPPEQKEPEVDALALKTAKGF,soluble
11,LESLLTLPLAGEARVRILQITDTHLFAQKHEALLGVNTWESYQAVLEAIRPHQHEFDLIVATGDLAQDQSSAAYQHFAEGIASFRAPCVWLPGNHDFQPAMYSALQDAGISPAKRVFIGEQWQILLLDSQVFGVPHGELSEFQLEWLERKLADAPERHTLLLLHHHPLPAGCSWLDQHSLRNAGELDTVLAKFPHVKYLLCGHIHQELDLDWNGRRLLATPSTCVQFKPHCSNFTLDTIAPGWRTLELHADGTLTTEVHRLADTRFQPDTASEGY,soluble
12,SLLCVVGGSMNVSMEASIVESLLQRRCLKESDLYRARQLQAESGVGLLPLLGRLGLVSERDHAEVCAEVMGLLLIQVRELPDTPPEFSAEVHGLSIRFLKQFHVCPLAEHDGVLQLCVADPFDVYAIEALRLATGAVLQLCIGLRSEIDDLVERWYGQGRS,soluble
13,MAHHHHHHMSISGAAAPAPLRGRESGGNVPGSMGALIKKLHPLYTQRVRPLEEMYSFDVFRPSWYEETILNERPFITLFGPWSAGKTTFINYLLQSNDLWTGPQPTTAEFTVVMYGKEPGPVAGQALANSKHLPFKGLLDFGESFIRNLKGFQAPHALLERVTLIDTPGVLESAKDIHQRKYDYVNVCRWFAERSDLIFVFFDPSKLDAGGELRQLFQTSFKGFENRLRLVLNKADTISTQELMRVYGSLFWNLSNFINTTEPPRVYVGSFWDKPYSPNSFSRLFAEEKLDLLHELLEVIPQQARDKKVASLIRRAKEVLVHAVILGGIRADLPLLFGKSKAKKKAAEQLPRRYELIGARYKMNHRDFPPVQAYRSFLERFDVAKFPPLQKAEKAGLIRGIQELIDTILPSMLRPVCNTRAANPFEEDKQTGLLSMYRDHVLLQRDGRPGMQGGTDKVASTMGQGVPDSATTGPSSSVAAAPASGPSSLLGPGPAVTALSASPPFIELPSRAMAASSTAVAASSPPPPPPSSAAATSSPADMQAMMAIMQQMVAYQQQQQQQQDRQSSSAPATVNSHGTLSSSSSETSGCLAESSVPVTPQESNLNSEPQPPTVVPQLGLPNSCATQISAWAGGDESKSQH,soluble
14,MNKPNLENMNPNFPSSPPIDIISPFFPNILVLNSSSSIANAGVTMTAFTAASPNPITKLMLNLFREGNIESESARKPAIVVNAAPSNAFPVSEIASSAASSGDLPLFLSS,soluble
15,LEKNDLVYMQRAFELNDKVAKDIMIDRTQLVVIDITSTVKEALNVYLQERFSRLPVVADNDKDKVLGYVYNYDLTRQQQVDSSVRVDKLIRDISTTPETTPITQVLQQMIKKRTPIVVVVDEYGGTSGIITDKDIYEEL,not soluble
16,MDISSTEIWDAIRRNSFLLYYQPKVDAKTNELIGFEGLIRLKTATAILAPADFFEDIALLNATREMQDFVAETAIEQINQLGGRFSISINIPAHYVVSSNYMTFLYDYVKEHLKYPECLEIEIIERGEITELAVADKNLRKIKKLGVTVSMDDFGKGYSSLAYLRSLPIDIVKTDMSFIALLKTDRKQQIIIQAIVNLCHDLGGKVVTEGVEDIEQVKTLREMKVDYFQGYYFSRPLPMKEIKEKYSIV,not soluble
17,LNDFAVRVAKSFSKVSEEKKSGSDIQGVFGIGSLENALYTASFAAGGGDYNNFLFNIKKGRADFSNFFNHNSKTFQSLRDIFNSFKPLIDQKGLISNKHFDTPVNNYAKFHQLAFYVSSTARFPYSFAKDNVKRLIIGKRELEVNPKSMFAIKKENGNNGNSNLLGKVALDNNKSIELYENNIPNGKTDAILIKN,soluble
18,MSTKTMKEKAVELLQKCEVVTLASVNKEGYPRPVPMSKIAAEGISTIWMSTGADSLKTIDFLSNPKAGLCFQEKGDSVALMGEVEVVTDEKLKQELWQDWFIEHFPGGPTDPGYVLLKFTANHATYWIEGTFIHKKLD,soluble
19,MGHHHHHHSHRSIGLKVGLEIHQQLDTREKLFCSCPAELGEEEHDEFVRQLRPTRSELGDVDPAALFEWRKGRLYIYQAPLNHSCLVEADEEPPHPINREAVAVAVAVAKALGSAIVDEVHVMRKTVIDGSNTSGFQRTAIVALGGSIRVGSKEVPIETIVIEEDAARKVGEKGRYVVYRLDRLGIPLIEIATAPVIESPGEAREVALAIGTMLRLTGKVKRGLGTIRQDLNVSIRGGAKTEIKGVQRLELIPRVIEYEVLRQLSLLRIR,not soluble

# Source: the DeepSol protein solubility set
